B1: TMEM106C (parent)
chain: FTGRDSITCLTCQGTGYIPTEQVN

Variants of: B1
Experiment: protein stability index of a GFP-peptide fusion (GPS, HEK-293T) (PSI 1-6); higher = more stable
Conditions: c terminus: a fixed tail appended
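Note: lentivirally expressed fusions sorted by FACS into six bins by GFP to DsRed ratio, PSI derived from sequencing read proportions per bin multiplied by bin number.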

For FTGRDSITCLTCQNTGYIPTEQVN, which protein stability index is on record?
The protein stability index was 1.74.

Which protein stability index does the source give for FTGRDSITCLTCQHTGYIPTEQVN here?
Its protein stability index is 1.88.

Which protein stability index does the source give for FTGRDSITCLTCQDTGYIPTEQVN here?
The protein stability index was 1.56.

With FTGRDSITCLTCQPTGYIPTEQVN as the variant, how does the protein stability index read?
The protein stability index was 1.29.

Which protein stability index does the source give for FTGRDSITCLTCQFTGYIPTEQVN here?
The protein stability index was 2.99.

For FTGRDSITCLTCQQTGYIPTEQVN, which protein stability index is on record?
The protein stability index was 1.99.

For FTGRDSITCLTCQKTGYIPTEQVN, which protein stability index is on record?
Its protein stability index is 1.66.

For FTGRDSITCLTCQMTGYIPTEQVN, which protein stability index is on record?
The protein stability index was 2.91.

For FTGRDSITCLTCQTTGYIPTEQVN, which protein stability index is on record?
Its protein stability index is 2.33.

Which protein stability index does the source give for FTGRDSITCLTCQITGYIPTEQVN here?
Its protein stability index is 2.53.

For FTGRDSITCLTCQVTGYIPTEQVN, which protein stability index is on record?
The protein stability index was 2.35.

For FTGRDSITCLTCQETGYIPTEQVN, which protein stability index is on record?
The protein stability index was 2.28.

Which protein stability index does the source give for FTGRDSITCLTCQATGYIPTEQVN here?
Its protein stability index is 1.5.

For FTGRDSITCLTCQRTGYIPTEQVN, which protein stability index is on record?
Its protein stability index is 2.24.

With FTGRDSITCLTCQCTGYIPTEQVN as the variant, how does the protein stability index read?
Its protein stability index is 1.89.

For FTGRDSITCLTCQSTGYIPTEQVN, which protein stability index is on record?
The protein stability index was 1.58.

For FTGRDSITCLTCQLTGYIPTEQVN, which protein stability index is on record?
Its protein stability index is 2.8.

Which protein stability index does the source give for FTGRDSITCLWCQGTGYIPTEQVN here?
The protein stability index was 2.97.

For FTGRDSITCLYCQGTGYIPTEQVN, which protein stability index is on record?
The protein stability index was 2.07.

Which protein stability index does the source give for FTGRDSITCLGCQGTGYIPTEQVN here?
Its protein stability index is 1.64.

With FTGRDSITCLECQGTGYIPTEQVN as the variant, how does the protein stability index read?
The protein stability index was 2.01.

Which protein stability index does the source give for FTGRDSITCLNCQGTGYIPTEQVN here?
Its protein stability index is 1.86.

For FTGRDSITCLSCQGTGYIPTEQVN, which protein stability index is on record?
Its protein stability index is 2.01.

For FTGRDSITCLACQGTGYIPTEQVN, which protein stability index is on record?
Its protein stability index is 2.32.

Which protein stability index does the source give for FTGRDSITCLPCQGTGYIPTEQVN here?
Its protein stability index is 1.55.

For FTGRDSITCLMCQGTGYIPTEQVN, which protein stability index is on record?
Its protein stability index is 1.77.

For FTGRDSITCLLCQGTGYIPTEQVN, which protein stability index is on record?
Its protein stability index is 1.66.

With FTGRDSITCLQCQGTGYIPTEQVN as the variant, how does the protein stability index read?
The protein stability index was 1.85.

Which protein stability index does the source give for FTGRDSITCLVCQGTGYIPTEQVN here?
The protein stability index was 2.66.

For FTGRDSITCLFCQGTGYIPTEQVN, which protein stability index is on record?
Its protein stability index is 2.85.

Which protein stability index does the source give for FTGRDSITCLRCQGTGYIPTEQVN here?
The protein stability index was 1.97.

For FTGRDSITCLHCQGTGYIPTEQVN, which protein stability index is on record?
The protein stability index was 2.06.

With FTGRDSITCLICQGTGYIPTEQVN as the variant, how does the protein stability index read?
Its protein stability index is 1.52.

With FTGRDSITCLCCQGTGYIPTEQVN as the variant, how does the protein stability index read?
The protein stability index was 1.86.

For FTGRDSITCLKCQGTGYIPTEQVN, which protein stability index is on record?
Its protein stability index is 1.7.

With FTGRDSITCLDCQGTGYIPTEQVN as the variant, how does the protein stability index read?
Its protein stability index is 2.42.

For FTGRDSITCLTVQGTGYIPTEQVN, which protein stability index is on record?
The protein stability index was 1.83.

With FTGRDSITCLTHQGTGYIPTEQVN as the variant, how does the protein stability index read?
Its protein stability index is 1.98.

Which protein stability index does the source give for FTGRDSITCLTYQGTGYIPTEQVN here?
Its protein stability index is 2.06.

Which protein stability index does the source give for FTGRDSITCLTEQGTGYIPTEQVN here?
The protein stability index was 2.18.

With FTGRDSITCLTLQGTGYIPTEQVN as the variant, how does the protein stability index read?
The protein stability index was 1.79.

For FTGRDSITCLTRQGTGYIPTEQVN, which protein stability index is on record?
Its protein stability index is 1.85.

Which protein stability index does the source give for FTGRDSITCLTNQGTGYIPTEQVN here?
The protein stability index was 2.18.

Which protein stability index does the source give for FTGRDSITCLTFQGTGYIPTEQVN here?
Its protein stability index is 2.34.

With FTGRDSITCLTMQGTGYIPTEQVN as the variant, how does the protein stability index read?
Its protein stability index is 2.09.

Which protein stability index does the source give for FTGRDSITCLTQQGTGYIPTEQVN here?
Its protein stability index is 1.95.

For FTGRDSITCLTDQGTGYIPTEQVN, which protein stability index is on record?
Its protein stability index is 2.41.

With FTGRDSITCLTKQGTGYIPTEQVN as the variant, how does the protein stability index read?
Its protein stability index is 2.

Which protein stability index does the source give for FTGRDSITCLTWQGTGYIPTEQVN here?
The protein stability index was 2.51.

Which protein stability index does the source give for FTGRDSITCLTGQGTGYIPTEQVN here?
Its protein stability index is 2.04.

With FTGRDSITCLTPQGTGYIPTEQVN as the variant, how does the protein stability index read?
The protein stability index was 1.68.

For FTGRDSITCLTAQGTGYIPTEQVN, which protein stability index is on record?
Its protein stability index is 2.17.

For FTGRDSITCLTIQGTGYIPTEQVN, which protein stability index is on record?
The protein stability index was 2.4.

Which protein stability index does the source give for FTGRDSITCLTTQGTGYIPTEQVN here?
The protein stability index was 1.63.

For FTGRDSITCLTSQGTGYIPTEQVN, which protein stability index is on record?
Its protein stability index is 2.

With FTGRDSITCLTCTGTGYIPTEQVN as the variant, how does the protein stability index read?
Its protein stability index is 2.71.

With FTGRDSITCLTCAGTGYIPTEQVN as the variant, how does the protein stability index read?
The protein stability index was 2.23.

Which protein stability index does the source give for FTGRDSITCLTCRGTGYIPTEQVN here?
Its protein stability index is 2.18.

For FTGRDSITCLTCSGTGYIPTEQVN, which protein stability index is on record?
Its protein stability index is 1.92.

With FTGRDSITCLTCDGTGYIPTEQVN as the variant, how does the protein stability index read?
The protein stability index was 1.83.

With FTGRDSITCLTCVGTGYIPTEQVN as the variant, how does the protein stability index read?
Its protein stability index is 2.

Which protein stability index does the source give for FTGRDSITCLTCGGTGYIPTEQVN here?
The protein stability index was 2.28.

Which protein stability index does the source give for FTGRDSITCLTCCGTGYIPTEQVN here?
Its protein stability index is 1.53.

For FTGRDSITCLTCEGTGYIPTEQVN, which protein stability index is on record?
Its protein stability index is 1.95.

Which protein stability index does the source give for FTGRDSITCLTCYGTGYIPTEQVN here?
Its protein stability index is 2.38.

With FTGRDSITCLTCMGTGYIPTEQVN as the variant, how does the protein stability index read?
Its protein stability index is 1.75.

For FTGRDSITCLTCWGTGYIPTEQVN, which protein stability index is on record?
Its protein stability index is 2.52.

Which protein stability index does the source give for FTGRDSITCLTCKGTGYIPTEQVN here?
Its protein stability index is 1.96.

With FTGRDSITCLTCFGTGYIPTEQVN as the variant, how does the protein stability index read?
The protein stability index was 2.17.

Which protein stability index does the source give for FTGRDSITCLTCLGTGYIPTEQVN here?
Its protein stability index is 2.13.

For FTGRDSITCLTCIGTGYIPTEQVN, which protein stability index is on record?
The protein stability index was 2.35.

With FTGRDSITCLTCHGTGYIPTEQVN as the variant, how does the protein stability index read?
Its protein stability index is 2.09.

Which protein stability index does the source give for FTGRDSITCLTCNGTGYIPTEQVN here?
Its protein stability index is 2.39.

With FTGRDSITCLTCPGTGYIPTEQVN as the variant, how does the protein stability index read?
Its protein stability index is 1.94.

With FTGRDSITYLTCQGTGYIPTEQVN as the variant, how does the protein stability index read?
Its protein stability index is 2.75.

With FTGRDSITCTTCQGTGYIPTEQVN as the variant, how does the protein stability index read?
Its protein stability index is 2.65.

With FTGRDSITCATCQGTGYIPTEQVN as the variant, how does the protein stability index read?
The protein stability index was 2.29.

Which protein stability index does the source give for FTGRDSITCWTCQGTGYIPTEQVN here?
The protein stability index was 2.01.

For FTGRDSITCYTCQGTGYIPTEQVN, which protein stability index is on record?
The protein stability index was 3.42.

For FTGRDSITCETCQGTGYIPTEQVN, which protein stability index is on record?
The protein stability index was 3.8.

Which protein stability index does the source give for FTGRDSITCMTCQGTGYIPTEQVN here?
The protein stability index was 1.91.

Which protein stability index does the source give for FTGRDSITCHTCQGTGYIPTEQVN here?
Its protein stability index is 2.84.

For FTGRDSITCPTCQGTGYIPTEQVN, which protein stability index is on record?
Its protein stability index is 4.51.

Which protein stability index does the source give for FTGRDSITCITCQGTGYIPTEQVN here?
The protein stability index was 1.98.

For FTGRDSITCCTCQGTGYIPTEQVN, which protein stability index is on record?
Its protein stability index is 1.99.

Which protein stability index does the source give for FTGRDSITCFTCQGTGYIPTEQVN here?
The protein stability index was 3.

For FTGRDSITCVTCQGTGYIPTEQVN, which protein stability index is on record?
Its protein stability index is 2.2.

For FTGRDSITCSTCQGTGYIPTEQVN, which protein stability index is on record?
The protein stability index was 2.85.

With FTGRDSITCNTCQGTGYIPTEQVN as the variant, how does the protein stability index read?
The protein stability index was 2.77.

Which protein stability index does the source give for FTGRDSITCDTCQGTGYIPTEQVN here?
The protein stability index was 3.96.

With FTGRDSITCQTCQGTGYIPTEQVN as the variant, how does the protein stability index read?
The protein stability index was 3.17.

With FTGRDSITCRTCQGTGYIPTEQVN as the variant, how does the protein stability index read?
Its protein stability index is 2.36.

Which protein stability index does the source give for FTGRDSITCKTCQGTGYIPTEQVN here?
Its protein stability index is 2.7.

With FTGRDSITCGTCQGTGYIPTEQVN as the variant, how does the protein stability index read?
Its protein stability index is 2.02.
